The source of these data is paper PMC2612750, “Identification of Pax6-Dependent Gene Regulatory Networks in the Mouse Lens”.

The target of one data set is Pax6 GST-PD (UniProt P63015 4-130). Briefly: EMSA; EMSA: 0.5-1 ng 5'-end-labelled probe, 2 ug poly(dI-dC), room temperature 10 min, 5% PAGE in 0.5x TBE; competitor 50 ng cold P6CON (~50:1); binding buffer, salt. The conditions noted are these: protein: recombinant; tags: GST; label: 5'-end label (radioactive). (In general: In EMSA bound probe runs differently from free probe, usually more slowly.)

Another data set addresses Pax6 GST-PD/HD (UniProt P63015 4-269). Described as above. Particulars: protein: recombinant; tags: GST; label: 5'-end label (radioactive).

Sequence of Pax6 GST-PD (P63015 4-130): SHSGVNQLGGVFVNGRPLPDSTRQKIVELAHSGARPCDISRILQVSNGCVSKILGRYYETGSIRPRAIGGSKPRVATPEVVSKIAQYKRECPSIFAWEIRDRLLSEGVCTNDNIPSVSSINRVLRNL
Sequence of Pax6 GST-PD/HD (P63015 4-269): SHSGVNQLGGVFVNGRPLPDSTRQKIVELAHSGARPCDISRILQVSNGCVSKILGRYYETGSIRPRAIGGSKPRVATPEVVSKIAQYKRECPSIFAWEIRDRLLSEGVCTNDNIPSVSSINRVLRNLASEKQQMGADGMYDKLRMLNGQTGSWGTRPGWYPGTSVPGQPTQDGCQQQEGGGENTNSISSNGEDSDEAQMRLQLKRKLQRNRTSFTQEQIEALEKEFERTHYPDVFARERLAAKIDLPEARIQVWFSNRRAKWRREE

B1: P6CON (dsDNA)
DNA 1: GGATGCAATTTCACGCATGAGTGCCTCGAGGGATCCACGTCGA
DNA 2: TCGACGTGGATCCCTCGAGGCACTCATGCGTGAAATTGCATCC
For the molecule B1, the binding result with Pax6 GST-PD and in the data set with Pax6 GST-PD/HD was “binds” in each case.
